{"source": "patent US20050238685A1", "about": "(published 2005)", "binders": {"B1": {"name": "SC4 hydrophobin of Schizophyllum commune (other)", "chain": "AGQACNSGPVQCCNETTTVANAQKQGLLGGLLGVVVGPITGLVGLNCSPISVVGVLTGNSCTAQTVCCDHVTQNGLVNVGCTPISL"}, "B2": {"name": "SC3 hydrophobin of Schizophyllum commune (other, UniProt P16933 25-136, looked up)", "chain": "GGHPGTTTPPVTTTVTVTTPPSTTTIAAGGTCTTGSLSCCNQVQSASSSPVTALLGLLGIVLSDLNVLVGISCSPLTVIGVGGSGCSAQTVCCENTQFNGLINIGCTPINIL", "notes": "Used as a self-assembled film (alpha-helix state or beta-sheet state) coated on TEFLON, polyethylene, glass, microtiter wells or oil droplets; Natural SC3 is glycosylated (mannose) at its N-terminal side; also called hydrophobin SC3"}}, "key": {"bovine pancreas trypsin [1]": {"target": "T1, bovine pancreas trypsin (bovine, UniProt P00760 24-246)", "T1 construct": "Bought enzyme; also called 25 kD trypsin (bovine pancreas)", "T1 sequence (P00760 24-246)": "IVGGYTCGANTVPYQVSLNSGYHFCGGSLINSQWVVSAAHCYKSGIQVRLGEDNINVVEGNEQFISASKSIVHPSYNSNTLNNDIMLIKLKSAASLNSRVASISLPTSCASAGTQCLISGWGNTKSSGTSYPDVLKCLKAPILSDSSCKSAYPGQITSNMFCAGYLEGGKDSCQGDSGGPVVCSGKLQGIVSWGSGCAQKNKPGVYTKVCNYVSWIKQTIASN", "test": "enzyme on hydrophobin-coated sheets, washed; chromogenic assay"}, "bovine pancreas trypsin [2]": {"target": "T1, bovine pancreas trypsin", "test": "enzyme on SC3-coated TEFLON, rinsed; activity by spectrophotometry, constant after removal of the surface", "experimental": "The surface was first coated with SC3 hydrophobin by immersion in the protein aqueous solution (0.3 mg/mL) during approximately 30 minutes. The obtained modified surface was then immersed in an aqueous enzyme solution during approximately 30 minutes. After each step, the TEFLON™ surface was rinsed with an adequate buffer solution. […] The functionalized TEFLON® was stored at 4° C. in an Eppendorf tube containing a buffer solution."}, "[3]": {"target": "BSA (bovine serum albumin) (bovine, UniProt P02769 25-607)", "sequence (P02769 25-607 limits assumed)": "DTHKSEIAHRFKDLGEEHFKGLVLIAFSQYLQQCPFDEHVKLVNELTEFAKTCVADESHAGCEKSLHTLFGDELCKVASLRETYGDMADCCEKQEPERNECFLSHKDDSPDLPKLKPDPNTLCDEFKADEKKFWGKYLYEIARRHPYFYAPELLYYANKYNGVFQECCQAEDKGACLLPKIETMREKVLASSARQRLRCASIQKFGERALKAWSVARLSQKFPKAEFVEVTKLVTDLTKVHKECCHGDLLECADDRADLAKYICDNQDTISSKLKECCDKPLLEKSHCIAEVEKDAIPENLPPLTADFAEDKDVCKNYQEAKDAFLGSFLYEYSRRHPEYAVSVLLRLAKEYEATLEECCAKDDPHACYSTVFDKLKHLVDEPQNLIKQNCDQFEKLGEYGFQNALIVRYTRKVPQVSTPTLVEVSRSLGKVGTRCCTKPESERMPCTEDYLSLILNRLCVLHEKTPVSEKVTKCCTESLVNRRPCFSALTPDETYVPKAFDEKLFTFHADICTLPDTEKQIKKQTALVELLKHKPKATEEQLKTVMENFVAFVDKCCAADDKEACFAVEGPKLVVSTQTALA", "test": "protein on hydrophobin-coated TEFLON sheets, rinsed; TFA extraction and SDS-PAGE", "text": "BSA (bovine serum albumin) and fibronectin were immobilized on coated TEFLON™ sheets. […] The sheets were removed from the hydrophobin solution and were immediately washed with large amounts of water to remove any unbound hydrophobin. […] The presence of BSA or fibronectin on bare and coated TEFLON™ was detected extracting all protein with TFA, evaporating the TFA and loading the sample on SDS-PAGE and staining according to standard procedures."}}}
{"binder": "B1", "values": [{"measurement": "binding result", "setting": "bovine pancreas trypsin [1]", "result": "binds"}]}
{"binder": "B2", "values": [{"measurement": "binding result", "setting": "bovine pancreas trypsin [2]", "result": "binds"}, {"measurement": "binding result", "setting": "[3]", "result": "binds"}]}
